Measured values from patent US20010029293A1 (ICOS, published 2001).

Tests used:
[1] = biological target: T1, human ICAM-R (human, UniProt P32942 30-547); assay: FACS, 5 µg/ml
T1 construct: On transfected L, CV-1 or COS cells, or native on human leukocytes and cell lines; also called ICAM-3; CDw50
T1 chain: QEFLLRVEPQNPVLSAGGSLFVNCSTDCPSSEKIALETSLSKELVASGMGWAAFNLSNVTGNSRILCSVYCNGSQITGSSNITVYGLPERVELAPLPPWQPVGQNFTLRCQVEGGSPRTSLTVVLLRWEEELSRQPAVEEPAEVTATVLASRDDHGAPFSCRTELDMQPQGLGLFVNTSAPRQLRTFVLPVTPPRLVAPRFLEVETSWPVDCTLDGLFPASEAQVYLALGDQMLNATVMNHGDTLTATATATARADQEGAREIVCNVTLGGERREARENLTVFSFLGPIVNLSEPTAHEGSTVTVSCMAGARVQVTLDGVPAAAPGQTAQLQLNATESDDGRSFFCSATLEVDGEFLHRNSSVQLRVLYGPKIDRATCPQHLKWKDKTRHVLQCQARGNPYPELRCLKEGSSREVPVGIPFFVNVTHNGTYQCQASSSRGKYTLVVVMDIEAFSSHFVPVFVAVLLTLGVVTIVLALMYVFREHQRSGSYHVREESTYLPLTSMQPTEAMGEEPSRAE

[2] = biological target: T2, human ICAM-1 (human, UniProt P05362 28-532); assay: FACS, 5 µg/ml
T2 construct: whole, on cells; on transfected L or COS cells
T2 sequence (P05362 28-532): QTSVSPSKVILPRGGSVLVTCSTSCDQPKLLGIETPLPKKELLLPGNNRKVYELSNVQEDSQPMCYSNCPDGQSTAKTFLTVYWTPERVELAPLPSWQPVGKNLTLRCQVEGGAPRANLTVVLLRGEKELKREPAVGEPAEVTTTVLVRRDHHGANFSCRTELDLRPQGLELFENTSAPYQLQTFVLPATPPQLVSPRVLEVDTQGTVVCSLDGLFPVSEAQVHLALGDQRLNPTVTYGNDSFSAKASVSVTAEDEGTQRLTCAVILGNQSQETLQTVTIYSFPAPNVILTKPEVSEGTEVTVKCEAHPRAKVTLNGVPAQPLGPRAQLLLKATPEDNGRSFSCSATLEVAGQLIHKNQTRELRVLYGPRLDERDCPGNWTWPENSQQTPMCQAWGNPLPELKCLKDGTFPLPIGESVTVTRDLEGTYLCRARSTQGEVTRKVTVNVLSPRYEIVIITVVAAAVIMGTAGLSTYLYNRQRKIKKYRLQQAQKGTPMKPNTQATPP

[3] = biological target: T3, chimeric Protein 3 (ICAM-R domains 1-3 / ICAM-1) (human, UniProt P05362 317-532); assay: FACS, 5 µg/ml
T3 construct: range 317-532; on COS cells; also called Protein number 3; RD1-3.1D4-5

[4] = biological target: T1, human ICAM-R; assay: cell-based or functional assay
[5] = biological target: T4, VLA-4 (α4/β1) on cells (UniProt P13612 34-1032; P05556 21-798, limits assumed); assay: not described
T4 construct: whole, on cells; on Jurkat cells, T cells or COS transfectants

[6] = biological target: T5, LFA-1 (CD11a/CD18) on cells (human, UniProt P20701 26-1170; P05107 23-769); assay: not described
T5 construct: whole, on cells; on SKW3, JY, HL-60 cells, neutrophils, or CHO/COS transfectants; also called CD18/CD11a
T5 sequence (P20701 26-1170, chain 1 of 2): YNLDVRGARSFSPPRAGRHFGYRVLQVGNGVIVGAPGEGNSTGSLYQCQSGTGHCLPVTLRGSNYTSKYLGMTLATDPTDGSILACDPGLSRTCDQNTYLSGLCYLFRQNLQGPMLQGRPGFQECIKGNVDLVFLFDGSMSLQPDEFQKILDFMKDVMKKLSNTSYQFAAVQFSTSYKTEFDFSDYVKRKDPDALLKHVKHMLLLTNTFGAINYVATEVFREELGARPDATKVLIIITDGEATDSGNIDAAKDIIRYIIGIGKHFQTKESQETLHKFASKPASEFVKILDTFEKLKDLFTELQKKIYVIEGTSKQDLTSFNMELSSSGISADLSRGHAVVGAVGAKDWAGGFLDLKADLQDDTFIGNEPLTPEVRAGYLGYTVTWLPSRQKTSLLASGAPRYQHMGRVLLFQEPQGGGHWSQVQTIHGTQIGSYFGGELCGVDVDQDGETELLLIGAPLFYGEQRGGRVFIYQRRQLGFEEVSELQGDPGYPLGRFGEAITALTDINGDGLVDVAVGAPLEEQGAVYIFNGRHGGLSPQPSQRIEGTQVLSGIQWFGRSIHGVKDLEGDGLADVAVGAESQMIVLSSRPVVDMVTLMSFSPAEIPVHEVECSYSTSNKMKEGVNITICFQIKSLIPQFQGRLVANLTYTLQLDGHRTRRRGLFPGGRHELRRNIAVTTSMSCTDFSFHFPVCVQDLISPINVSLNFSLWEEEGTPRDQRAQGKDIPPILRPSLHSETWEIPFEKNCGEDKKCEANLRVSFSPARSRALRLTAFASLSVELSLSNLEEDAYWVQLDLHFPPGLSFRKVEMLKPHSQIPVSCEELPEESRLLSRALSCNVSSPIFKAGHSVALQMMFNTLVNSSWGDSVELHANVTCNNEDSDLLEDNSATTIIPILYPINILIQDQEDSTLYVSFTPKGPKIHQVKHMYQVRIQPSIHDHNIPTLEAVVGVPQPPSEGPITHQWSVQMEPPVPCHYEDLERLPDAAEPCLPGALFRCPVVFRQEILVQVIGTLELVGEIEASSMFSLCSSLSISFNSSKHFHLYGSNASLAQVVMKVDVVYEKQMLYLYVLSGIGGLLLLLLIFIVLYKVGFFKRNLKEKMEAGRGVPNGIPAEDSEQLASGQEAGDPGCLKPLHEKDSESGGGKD
T5 sequence (P05107 23-769, chain 2 of 2): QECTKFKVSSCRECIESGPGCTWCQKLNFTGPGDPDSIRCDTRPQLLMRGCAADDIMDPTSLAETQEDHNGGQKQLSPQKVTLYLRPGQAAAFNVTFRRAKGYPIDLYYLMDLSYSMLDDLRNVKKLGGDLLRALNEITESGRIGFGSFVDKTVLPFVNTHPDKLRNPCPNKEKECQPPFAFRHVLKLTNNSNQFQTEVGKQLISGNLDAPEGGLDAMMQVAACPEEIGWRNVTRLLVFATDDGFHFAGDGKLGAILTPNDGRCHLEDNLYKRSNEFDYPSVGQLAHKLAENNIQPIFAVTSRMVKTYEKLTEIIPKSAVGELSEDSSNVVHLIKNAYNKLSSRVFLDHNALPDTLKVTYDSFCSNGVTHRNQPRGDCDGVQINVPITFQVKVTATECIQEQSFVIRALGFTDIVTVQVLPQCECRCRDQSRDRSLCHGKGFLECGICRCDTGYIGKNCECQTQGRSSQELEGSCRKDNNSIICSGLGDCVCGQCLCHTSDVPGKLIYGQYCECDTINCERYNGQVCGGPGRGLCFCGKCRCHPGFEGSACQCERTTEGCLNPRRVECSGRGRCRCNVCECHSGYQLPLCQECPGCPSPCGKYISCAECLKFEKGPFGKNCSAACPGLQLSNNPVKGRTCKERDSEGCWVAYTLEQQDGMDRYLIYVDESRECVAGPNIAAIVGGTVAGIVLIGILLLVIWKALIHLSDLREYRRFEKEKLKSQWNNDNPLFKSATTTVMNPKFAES

[7] = biological target: Mac-1 (CD11b/CD18) on cells (UniProt P11215 17-1152; P05107 23-769); assay: neutrophil adhesion
[8] = biological target: T5, LFA-1 (CD11a/CD18) on cells; assay: neutrophil adhesion
[9] = biological target: T5, LFA-1 (CD11a/CD18) on cells; assay: JY cell adhesion to plate-bound chimera
[10] = biological target: T5, LFA-1 (CD11a/CD18) on cells; assay: cell adhesion to coated shICAM-R, peptide 1-2 mg/ml
[11] = biological target: T6, soluble human ICAM-R (human, UniProt P32942 30-485); assay: ELISA on coated shICAM-R
T6 construct: baculovirus/Sf-9 product; also called shICAM-R; ICAM-Rt1
T6 chain: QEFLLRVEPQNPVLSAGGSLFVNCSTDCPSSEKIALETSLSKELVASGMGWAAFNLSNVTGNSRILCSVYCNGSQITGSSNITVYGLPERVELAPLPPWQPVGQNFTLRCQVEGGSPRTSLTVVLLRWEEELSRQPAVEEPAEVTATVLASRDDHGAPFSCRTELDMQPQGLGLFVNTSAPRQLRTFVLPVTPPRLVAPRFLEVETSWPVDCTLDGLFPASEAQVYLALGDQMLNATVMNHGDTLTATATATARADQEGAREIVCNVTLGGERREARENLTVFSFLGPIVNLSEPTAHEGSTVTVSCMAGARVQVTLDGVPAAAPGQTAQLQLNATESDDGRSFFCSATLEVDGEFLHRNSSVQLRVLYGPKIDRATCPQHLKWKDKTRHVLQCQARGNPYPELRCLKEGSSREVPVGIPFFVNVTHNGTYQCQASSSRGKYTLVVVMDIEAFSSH

[12] = biological target: T6, soluble human ICAM-R; assay: blocking of biotinylated murine ICR-8.1 (competitor) binding to ICAM-R

B1: ICR-8.1 (antibody, mouse IgG1, V domains shown)
VH: EIQLQQTGPELVKPGASVKISCKASGYSFTDCIILWVKQSHGKGLEWIGKINPYFGTTTYNLKFKGKATLTVDKSSSTAHMQLNSLTSEDSAVYYCARKEAYPDAMDYWGQGTSVTVSS
VL: DAVMTQTPLSLPVSLGDQASISCRSSQSLVHSNGDTYLHWYLQKPGQSPQLLIYKVSNRFSGVPDRFSGSGSGTDFTLKLSRVEAEDLGVYFCSQSTHVPYTFGGGTKLEIK
notes: murine IgG1, kappa; also called 46D7E; ATCC HB 11232
With B1 the “percent positive COS cell transfectants” value [1] was 48.9%, the “percent positive COS cell transfectants” value [2] was 1.08% and the “percent positive COS cell transfectants” value [3] was 44.9%. The “IC50 (µg/ml), inhibition of SEA-induced PBL proliferation by plate-bound antibody” value [4] was 1 µg/mL.

B2: ICAM-R/IgG variant D231H-Ig (Fc fusion)
chain: QEFLLRVEPQNPVLSAGGSLFVNCSTDCPSSEKIALETSLSKELVASGMGWAAFNLSNVTGNSRILCSVYCNGSQITGSSNITVYGLPERVELAPLPPWQPVGQNFTLRCQVEGGSPRTSLTVVLLRWEEELSRQPAVEEPAEVTATVLASRDDHGAPFSCRTELDMQPQGLGLFVNTSAPRQLRTFVLPVTPPRLVAPRFLEVETSWPVDCTLDGLFPASEAQVYLALGHQMLNATVMNHGDTLTATATATARADQEGAREIVCNVTLGGERREARENLTVFSFLGPIVNLSEPTAHEGSTVTVSCMAGARVQVTLDGVPAAAPGQTAQLQLNATESDDGRSFFCSATLEVDGEFLHRNSSVQLRVLYGPKIDRATCPQHLKWKDKTRHVLQCQARGNPYPELRCLKEGSSREVPVGIPFFVNVTHNGTYQCQASSSRGKYTLVVVMDIEAFSSH
notes: not shown: human IgG1 hinge, CH2, CH3
B2: binds [5]; binds [6].

B3: ICAM-R/His fusion protein (receptor, not shown: small tags and cut ends)
chain: QEFLLRVEPQNPVLSAGGSLFVNCSTDCPSSEKIALETSLSKELVASGMGWAAFNLSNVTGNSRILCSVYCNGSQITGSSNITVYGLPERVELAPLPPWQPVGQNFTLRCQVEGGSPRTSLTVVLLRWEEELSRQPAVEEPAEVTATVLASRDDHGAPFSCRTELDMQPQGLGLFVNTSAPRQLRTFVLPVTPPRLVAPRFLEVETSWPVDCTLDGLFPASEAQVYLALGDQMLNATVMNHGDTLTATATATARADQEGAREIVCNVTLGGERREARENLTVFSFLGPIVNLSEPTAHEGSTVTVSCMAGARVQVTLDGVPAAAPGQTAQLQLNATESDDGRSFFCSATLEVDGEFLHRNSSVQLRVLYGPKIDRATCPQHLKWKDKTRHVLQCQARGNPYPELRCLKEGSSREVPVGIPFFVNVTHNGTYQCQASSSRGKYTLVVVMDIEAFSSH
notes: CHO product
B3: binds [7]; binds [8].

B4: ICAM-R/IgG chimera E37/A (Fc fusion)
chain: QEFLLRVEPQNPVLSAGGSLFVNCSTDCPSSEKIALATSLSKELVASGMGWAAFNLSNVTGNSRILCSVYCNGSQITGSSNITVYGLPERVELAPLPPWQPVGQNFTLRCQVEGGSPRTSLTVVLLRWEEELSRQPAVEEPAEVTATVLASRDDHGAPFSCRTELDMQPQGLGLFVNTSAPRQLRTFVLPVTPPRLVAPRFLEVETSWPVDCTLDGLFPASEAQVYLALGDQMLNATVMNHGDTLTATATATARADQEGAREIVCNVTLGGERREARENLTVFSFLGPIVNLSEPTAHEGSTVTVSCMAGARVQVTLDGVPAAAPGQTAQLQLNATESDDGRSFFCSATLEVDGEFLHRNSSVQLRVLYGPKIDRATCPQHLKWKDKTRHVLQCQARGNPYPELRCLKEGSSREVPVGIPFFVNVTHNGTYQCQASSSRGKYTLVVVMDIEAFSSH
notes: also called ICAM-R E37/A; not shown: human IgG1 hinge, CH2, CH3
B4: no binding [9]; binds [7].

B5: ICAM-R/IgG variant E37T-Ig (Fc fusion)
chain: QEFLLRVEPQNPVLSAGGSLFVNCSTDCPSSEKIALASSLSKELVASGMGWAAFNLSNVTGNSRILCSVYCNGSQITGSSNITVYGLPERVELAPLPPWQPVGQNFTLRCQVEGGSPRTSLTVVLLRWEEELSRQPAVEEPAEVTATVLASRDDHGAPFSCRTELDMQPQGLGLFVNTSAPRQLRTFVLPVTPPRLVAPRFLEVETSWPVDCTLDGLFPASEAQVYLALGDQMLNATVMNHGDTLTATATATARADQEGAREIVCNVTLGGERREARENLTVFSFLGPIVNLSEPTAHEGSTVTVSCMAGARVQVTLDGVPAAAPGQTAQLQLNATESDDGRSFFCSATLEVDGEFLHRNSSVQLRVLYGPKIDRATCPQHLKWKDKTRHVLQCQARGNPYPELRCLKEGSSREVPVGIPFFVNVTHNGTYQCQASSSRGKYTLVVVMDIEAFSSH
notes: as for B2
B5: no binding [6].

B6: domain deletion ICAM-R/IgG chimera with ICAM-R domains 3, 4 and 5 (Fc fusion)
chain: VLPVTPPRLVAPRFLEVETSWPVDCTLDGLFPASEAQVYLALGDQMLNATVMNHGDTLTATATATARADQEGAREIVCNVTLGGERREARENLTVFSFLGPIVNLSEPTAHEGSTVTVSCMAGARVQVTLDGVPAAAPGQTAQLQLNATESDDGRSFFCSATLEVDGEFLHRNSSVQLRVLYGPKIDRATCPQHLKWKDKTRHVLQCQARGNPYPELRCLKEGSSREVPVGIPFFVNVTHNGTYQCQASSSRGKYTLVVVMDIEAFSSH
notes: as for B2
B6: no binding [9].

GERREA [ICAM-R peptide 271-276] was tested, and the “% Inhibition CD18-Dependent Binding (SKW3)” value [10] was 0%.

In the case of DGQST [ICAM-1 peptide 70-74 (DGQST)], the “% Inhibition CD18-Dependent Binding (SKW3)” value [10] is reported as 0%.

B7: ICR-1.1 antibody with HuVK (hybrid) (antibody, human IgG4, V domains shown)
VH: QVQLQQSGAELAKPGASVKMSCKASGYTFTVYWMHWVKQRPGQGLEWIGYINPNTDYTEYNQRFQDKATLTADKSSSTAYMQLSSLTSEDSAVYYCARWGGNSYGLDYWGQGTSVTVSS
VL: DIQMTQSPSSLSASVGDRVTITCSASSSVSYIYWYQQKPGKAPKLLIYLTSNLASGVPSRFSGSGSGTDFTLTISSLQPEDFATYYCQQWKSIPLTFGQGTKLEIK
notes: human IgG4 and human kappa constant regions; also called HuVK version
In the case of B7, the “fold deficit in binding against the murine progenitor chain” value [11] is reported as 2 fold.

B8: ICR-8.1 miHuVHI/HuVK (antibody, human IgG4, V domains shown)
VH: QIQLVQSGAEVKKPGASVKVSCKASGYTFTDCIILWVRQAPGQGLEWMGKINPYFGTTTYAQKFQGRVTITADTSTSTAYMELSSLRSEDTAVYYCARKEAYPDAMDYWGQGTLVTVSS
VL: DIVMTQSPLSLPVTPGEPASISCRSSQSLVHSNGDTYLHWYLQKPGQSPQLLIYKVSNRFSGVPDRFSGSGSGTDFTLKISRVEAEDVGVYYCSQSTHVPYTFGQGTKVEIK
notes: human IgG4 and human kappa constant regions
B8 was tested, and the “fold improvement in binding over the other recombinant ICR-8.1 antibodies” value [11] was about 2 fold and the “fold less well in competition than murine ICR-8.1” value [12] was about 2 fold.

B9: ICR-8.1 miHuVHI/MuVK (antibody, human IgG4, V domains shown)
VH: QIQLVQSGAEVKKPGASVKVSCKASGYTFTDCIILWVRQAPGQGLEWMGKINPYFGTTTYAQKFQGRVTITADTSTSTAYMELSSLRSEDTAVYYCARKEAYPDAMDYWGQGTLVTVSS
VL: DAVMTQTPLSLPVSLGDQASISCRSSQSLVHSNGDTYLHWYLQKPGQSPQLLIYKVSNRFSGVPDRFSGSGSGTDFTLKLSRVEAEDLGVYFCSQSTHVPYTFGGGTKLEIK
notes: as for B8
B9 was tested, and the “fold improvement in binding over the other recombinant ICR-8.1 antibodies” value [11] was about 2 fold and the “fold less well in competition than murine ICR-8.1” value [12] was about 2 fold.

With EKIALET [ICAM-R peptide 32-38] the “% Inhibition CD18-Dependent Binding (SKW3)” value [10] was 0%.

In the case of GDQML [ICAM-R peptide 230-234 (GDQML)], the “% Inhibition CD18-Dependent Binding (SKW3)” value [10] is reported as 0%.
